Publication PMC12609908

Tests used:
[1] = biological target: T1, CutR (Mycobacterium sp. strain JC1) (UniProt D5G1X9); test: EMSA; conditions: 50 mM Tris-HCl pH 8.0, 100 mM NaCl, 40% glycerol, 5 mM DTT, 2 mM EDTA, 4 °C 1 h; 10% native PAGE in 0.5x TBE at 4 °C
T1 sequence: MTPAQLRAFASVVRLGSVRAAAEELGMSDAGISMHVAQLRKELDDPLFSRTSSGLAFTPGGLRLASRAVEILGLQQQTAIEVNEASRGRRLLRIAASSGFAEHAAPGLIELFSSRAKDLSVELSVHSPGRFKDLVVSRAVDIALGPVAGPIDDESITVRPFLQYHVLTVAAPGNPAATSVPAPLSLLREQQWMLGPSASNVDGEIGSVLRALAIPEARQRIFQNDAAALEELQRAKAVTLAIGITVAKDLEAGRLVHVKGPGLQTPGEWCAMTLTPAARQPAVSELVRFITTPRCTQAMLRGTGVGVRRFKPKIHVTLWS

[2] = biological target: CutR, LysR-type transcriptional regulator from Mycobacterium sp. strain JC1 (native protein) (Mycobacterium sp. strain JC1); test: SEC; Superdex G-75 column, 20 mM Tris-HCl pH 7.5, 500 mM NaCl, 5 mM beta-mercaptoethanol; size standards conalbumin, ovalbumin, carbonic anhydrase, ribonuclease A, aprotinin

Row | stoichiometry N [2] | Substance | binding [1]
1 |  | ACCCCGAGTTAAGTGATTCCTTAACTCGCTATTGACGCCATCGCGGCGGCAACGGAAACTAGCCACTTCAGCCACGACGTTGTGAGGATGATCACATGCAA (double strand) [IR1 to CRP motif fragment (101 bp)] | binds
2 | 2 | CutR, LysR-type transcriptional regulator from Mycobacterium sp. strain JC1 (native protein) (natural protein) | 
